The values below come from IntAct's records for PubMed 9430655.

To fix the notation:
B1: Merlin (Homo sapiens), P35240-1 (parent)
chain: MAGAIASRMSFSSLKRKQPKTFTVRIVTMDAEMEFNCEMKWKGKDLFDLVCRTLGLRETWFFGLQYTIKDTVAWLKMDKKVLDHDVSKEEPVTFHFLAKFYPENAEEELVQEITQHLFFLQVKKQILDEKIYCPPEASVLLASYAVQAKYGDYDPSVHKRGFLAQEELLPKRVINLYQMTPEMWEERITAWYAEHRGRARDEAEMEYLKIAQDLEMYGVNYFAIRNKKGTELLLGVDALGLHIYDPENRLTPKISFPWNEIRNISYSDKEFTIKPLDKKIDVFKFNSSKLRVNKLILQLCIGNHDLFMRRRKADSLEVQQMKAQAREEKARKQMERQRLAREKQMREEAERTRDELERRLLQMKEEATMANEALMRSEETADLLAEKAQITEEEAKLLAQKAAEAEQEMQRIKATAIRTEEEKRLMEQKVLEAEVLALKMAEESERRAKEADQLKQDLQEAREAERRAKQKLLEIATKPTYPPMNPIPAPLPPDIPSFNLIGDSLSFDFKDTDMKRLSMEIEKEKVEYMEKSKHLQEQLNELKTEIEALKLKERETALDILHNENSDRGGSSKHNTIKKLTLQSAKSRVAFFEEL
partner: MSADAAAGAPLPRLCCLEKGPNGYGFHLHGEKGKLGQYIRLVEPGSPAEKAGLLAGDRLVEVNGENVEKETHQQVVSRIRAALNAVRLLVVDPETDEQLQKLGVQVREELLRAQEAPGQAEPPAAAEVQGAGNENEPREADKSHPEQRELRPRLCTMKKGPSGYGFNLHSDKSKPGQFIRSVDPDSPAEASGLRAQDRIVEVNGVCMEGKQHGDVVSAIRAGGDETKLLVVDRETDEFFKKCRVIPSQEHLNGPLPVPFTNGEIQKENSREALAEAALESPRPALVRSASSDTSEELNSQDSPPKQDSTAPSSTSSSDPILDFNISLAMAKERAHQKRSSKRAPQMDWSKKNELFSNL

The variants in this assay derive from B1. As to conditions: with nhrf1_human NHERF1, O14745.
For N220Y, the “effect of a mutation on the interaction” value is on record as “decreasing interaction”.
